For one molecule, Kd results are on record in patent publication US20180030098A1 (NAVIGO PROTEINS, published 2018).

For this assay, the target named is T1, Recombinant human EGFR-Fc Chimera (R&D Systems, catalog no. 344-ER-050) (human, UniProt P00533 25-645).
T1 construct: range 1-645; Bought reagent; Immobilised on the CM5 chip for SPR; also called hEGFR-Fc; not shown: Fc region of human IgG1, fused at the C-terminus
The assay can be described thus: SPR (Biacore) on immobilised hEGFR-Fc.

Usually Kd stands for a measure of binding affinity in units of concentration.

B1: Affilin 138838 (designed binder)
chain: MQIFVYTNTGKTITLEVEPSDTIENVKAKIQDKEGIPPDQQRLIWAGKQLEDGRTLSDYNIRNPDILHLVLRLRAAGIGMQIFVHTITGKTITLEVEPSDTIENVKAKIQDKEGIPPDQQRLIWAGKQLEDGRTLSDYNIEGERDLHLVLRLRAA
notes: Affilin of two ubiquitin moieties with PDI motif
Turning to B1, the Kd was determined as 615 nM.
